Entries after “also recorded” stand apart in the source; their conditions may differ.
Columns and labels:
[1] = biological target: T1, Raf-1/14-3-3 binding to the IL-2Rb chain (Homo sapiens, UniProt P14784); assay: COS cells co-transfected with IL-2Rβ chain and lck or fyn, immunoprecipitates probed for Raf-1 and 14-3-3; type: cell-based; settings: co-transfection of COS cells, FIG. 10a
T1 construct: constructs encoding full-length or deletional mutants of the human IL-2Rβ chain; expressed in transfected cells; host or cells: COS cells, pRcCMV-IL-2Rβ, with or without lck or fyn
T1 sequence (P14784 27-551): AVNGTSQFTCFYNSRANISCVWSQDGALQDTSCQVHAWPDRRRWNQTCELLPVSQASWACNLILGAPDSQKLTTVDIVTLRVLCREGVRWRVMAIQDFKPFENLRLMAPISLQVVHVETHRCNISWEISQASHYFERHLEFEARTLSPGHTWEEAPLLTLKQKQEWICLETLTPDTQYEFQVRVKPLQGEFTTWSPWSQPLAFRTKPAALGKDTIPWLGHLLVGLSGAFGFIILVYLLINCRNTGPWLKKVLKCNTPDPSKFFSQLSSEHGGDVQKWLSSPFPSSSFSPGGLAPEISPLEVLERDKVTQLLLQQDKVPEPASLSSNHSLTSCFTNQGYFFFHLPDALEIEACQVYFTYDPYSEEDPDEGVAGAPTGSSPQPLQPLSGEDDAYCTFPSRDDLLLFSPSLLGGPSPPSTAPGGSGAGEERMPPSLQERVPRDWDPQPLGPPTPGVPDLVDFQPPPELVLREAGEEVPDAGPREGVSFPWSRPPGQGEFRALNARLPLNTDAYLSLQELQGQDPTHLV
Text: In order to perform this examination, COS cells were transfected with IL-2Rβ chain alone, or co-transfected with lck or fyn, then […] with anti-IL-2Rβ chain antibody. The immunoprecipitates were then probed for the presence of Raf-1 and 14-3-3 proteins by immunoblotting (all procedures as detailed hereinabove).

[2] = biological target: T2, IL-2Rβ chain/Raf-1/14-3-3 complexes (Homo sapiens, UniProt P14784); assay: Pre-formed IL-2Rβ chain/(His)6 Raf-1/bacterial 14-3-3 complexes exposed to catalytically active p56lck in vitro; type: biochemical; settings: enzymatically active kinase, FIG. 10b
T2 construct: construction of plasmid FLAG-HMK-IL-2Rβ chain cytoplasmic domain wild type (FLAG-HMK-IL-2Rβ-WT); made in house; host or cells: bacterial lysates (BL-21 pLysS for the IL-2Rβ fusion, M15 for Raf-1)
T2 sequence (P14784 266-551 limits assumed): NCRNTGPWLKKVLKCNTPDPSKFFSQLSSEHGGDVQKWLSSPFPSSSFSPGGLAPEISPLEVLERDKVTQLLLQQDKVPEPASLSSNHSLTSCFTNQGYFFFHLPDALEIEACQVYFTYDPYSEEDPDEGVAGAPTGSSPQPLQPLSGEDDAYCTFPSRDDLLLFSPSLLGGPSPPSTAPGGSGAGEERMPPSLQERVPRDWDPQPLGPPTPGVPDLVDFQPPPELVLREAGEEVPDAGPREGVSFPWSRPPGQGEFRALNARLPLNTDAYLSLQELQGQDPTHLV
Method: The results of this examination are shown in FIG. 10a which is a reproduction of the above immunoblot. […] In addition, a study of the dissociation of pre-formed IL-2Rβ chain/Raf-1/14-3-3 complexes by enzymatically active p56^lck was also carried out. Pre-formed IL-2Rβ chain/(His)6 Raf-1/bacterial 14-3-3 complexes were prepared (see above in respect of FIGS. a-c), exposed to catalytically active p56^lck (Upstate Biotechnology), washed and eluted with FLAG peptide. Eluates were separated on SDS-PAGE and tested for the presence of Raf-1 proteins. The results of this study are shown in FIG. 10b which is a reproduction of an SDS-PAGE gel in which is depicted the Raf-1 bands. […] Since there is no indication that p56^lck interacts with Ras-like sequence of the IL-2Rβ chain, it seems that binding of Raf-1 and p56^lck to distinct subdomains of the same A-region, co-localize kinase and its substrate for fast enzymatic reaction occurring during IL-2R activation.

[3] = biological target: T3, Raf-1 serine/threonine kinase (Homo sapiens, UniProt P04049); assay: Serine/threonine kinase assay on T-cell proteins retained by FLAG-HMK-IL-2Rβ chain, with or without genistein, Histone H1 substrate; type: biochemical; settings: genistein 10 μg/ml; T-cell proteins bound to IL-2Rβ chain
T3 construct: endogenous in cells; host or cells: human T-cell lysate (Raf-1); BL-21 pLysS bacteria (IL-2Rβ fusion)
T3 sequence (P04049 whole entry, the tested form may be a part): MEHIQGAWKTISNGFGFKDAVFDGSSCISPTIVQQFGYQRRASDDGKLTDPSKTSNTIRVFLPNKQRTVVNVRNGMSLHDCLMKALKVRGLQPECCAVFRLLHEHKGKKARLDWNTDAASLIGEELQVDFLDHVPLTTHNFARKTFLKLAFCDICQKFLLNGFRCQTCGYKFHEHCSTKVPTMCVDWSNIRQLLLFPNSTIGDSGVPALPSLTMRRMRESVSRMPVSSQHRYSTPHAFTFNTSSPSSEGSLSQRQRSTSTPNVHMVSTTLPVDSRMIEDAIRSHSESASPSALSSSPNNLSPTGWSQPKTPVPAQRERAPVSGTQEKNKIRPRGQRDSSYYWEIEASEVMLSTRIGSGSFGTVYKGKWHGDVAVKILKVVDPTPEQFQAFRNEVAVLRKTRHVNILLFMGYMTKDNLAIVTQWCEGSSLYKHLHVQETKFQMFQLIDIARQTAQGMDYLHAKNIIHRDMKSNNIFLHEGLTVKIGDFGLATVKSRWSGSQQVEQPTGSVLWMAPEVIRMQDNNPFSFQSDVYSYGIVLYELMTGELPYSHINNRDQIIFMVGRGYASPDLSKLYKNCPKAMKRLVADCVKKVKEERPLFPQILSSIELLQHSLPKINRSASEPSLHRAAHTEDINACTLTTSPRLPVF
Method: The kinase reaction was initiated by the addition of 1 μCi of […] and 25 μM ATP. After 30 min at 24° C., the reaction was stopped by addition of reducing SDS-PAGE sample buffer and boiling.
(ii) Kinase reaction performed in the presence of Histone-H-1. There is an increased, genistein (tyrosine kinase inhibitor)-independent phosphorylation of Histone-H-1 in T-cell lysates retained on affinity beads coated with FLAG-HMK-IL-2Rβ chain. Control affinity beads coated with proteins isolated from bacteria transformed with vector alone and exposed to T-cell lysates retain only background level of serine/threonine kinase activity. These experiments were repeated a number of times. The results of a representative experiment are shown in FIG. 5 which is a reproduction of an autoradiogram of the products of the kinase reaction performed, in the presence of Histone H-1, on anti-FLAG beads coated with the IL-2Rβ chain construct (WT) and exposed to T-cell lysates in the presence of genistein (lane 3), or in the absence of genistein (lane 2) and then subjected to SDS-PAGE and autoradiography. The control (lane 1) was carried out with the FLAG-HMK vector alone (no insert).

Raf-1 / IL-2Rβ chain = settings: IL-2 stimulation; cited from earlier work

Molecule	effect on Raf-1/14-3-3 binding to the IL-2Rb chain [1]	dissociation of pre-formed IL-2Rβ chain/Raf-1/14-3-3 complexes [2]	effect of genistein on serine/threonine kinase activity (Histone H1 phosphorylation) [3]	dissociation of enzymatically active Raf-1 from the IL-2Rβ chain (Raf-1 / IL-2Rβ chain)
p56^lck: src-family protein tyrosine kinase; catalytically active enzyme from Upstate Biotechnology or co-transfected in COS cells	abrogation of Raf-1/14-3-3 binding	dissociation		
O=c1c(-c2ccc(O)cc2)coc2cc(O)cc(O)c12 [genistein]			not inhibited; also recorded: independent	completely abolished
p59^fyn: another src-like kinase, co-transfected in COS cells	did not cause this dissociation			

Reference: US20010016194A1 (priority 1999, published 2001)
